Laboratory results: publication PMC9230529

Molecular target: CD16a ectodomain (Human CD16a, amino acids Met1-Gln208, C-terminal His-tag) (human)
Assay: BLI

Substance: SARS-CoV-2 ORF8 (aa16-121), His Tag (from UniProt P0DTC8 16-121) (natural protein)
- Kd: 38.9 nM
